Reference: US20080187528A1 (FUNCTIONAL GENETICS, published 2008)

Assays:
[1] = target: biotinylated peptide Bio-… containing 11 amino acid residues from the N terminus of the Ebola VP40 (Ebola virus (EBOV))
[2] = target: T1, truncated (31-326) Ebola VP40 (Ebola virus (EBOV), UniProt Q05128 31-326); assay: Far Western
T1 sequence: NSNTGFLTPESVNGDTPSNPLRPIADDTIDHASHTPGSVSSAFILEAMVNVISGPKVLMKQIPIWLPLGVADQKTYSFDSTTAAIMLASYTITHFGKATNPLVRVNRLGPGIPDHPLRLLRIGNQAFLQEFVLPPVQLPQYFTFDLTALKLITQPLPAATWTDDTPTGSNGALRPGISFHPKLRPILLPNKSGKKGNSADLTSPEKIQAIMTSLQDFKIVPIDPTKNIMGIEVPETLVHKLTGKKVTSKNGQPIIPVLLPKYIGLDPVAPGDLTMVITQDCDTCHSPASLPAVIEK

B1: purified TSG101 protein that contains only the UEV domain (other)
chain: AVSESQLKKMVSKYKYRDLTVRETVNVITLYKDLKPVLDSYVFNDGSSRELMNLTGTIPVPYRGNTYNIPICLWLLDTYPYNPPICFVKPTSSMTIKTGKHVDANGKIYLPYLHEWKHPQSDLLGLIQVMIVVFGDEPPVFSRP
Q: B1 was tested. Which Kd [1] did it give?
A: 2000 nM

Q: Does B1 bind [2]?
A: no binding
